Earlier results in PMC5012295.

Target: Complement C4b (Homo sapiens) (UniProt P0C0L4)
Assay: AlphaScreen

Chain of UniProt P0C0L4 (P0C0L4 20-675, chain 1 of 2): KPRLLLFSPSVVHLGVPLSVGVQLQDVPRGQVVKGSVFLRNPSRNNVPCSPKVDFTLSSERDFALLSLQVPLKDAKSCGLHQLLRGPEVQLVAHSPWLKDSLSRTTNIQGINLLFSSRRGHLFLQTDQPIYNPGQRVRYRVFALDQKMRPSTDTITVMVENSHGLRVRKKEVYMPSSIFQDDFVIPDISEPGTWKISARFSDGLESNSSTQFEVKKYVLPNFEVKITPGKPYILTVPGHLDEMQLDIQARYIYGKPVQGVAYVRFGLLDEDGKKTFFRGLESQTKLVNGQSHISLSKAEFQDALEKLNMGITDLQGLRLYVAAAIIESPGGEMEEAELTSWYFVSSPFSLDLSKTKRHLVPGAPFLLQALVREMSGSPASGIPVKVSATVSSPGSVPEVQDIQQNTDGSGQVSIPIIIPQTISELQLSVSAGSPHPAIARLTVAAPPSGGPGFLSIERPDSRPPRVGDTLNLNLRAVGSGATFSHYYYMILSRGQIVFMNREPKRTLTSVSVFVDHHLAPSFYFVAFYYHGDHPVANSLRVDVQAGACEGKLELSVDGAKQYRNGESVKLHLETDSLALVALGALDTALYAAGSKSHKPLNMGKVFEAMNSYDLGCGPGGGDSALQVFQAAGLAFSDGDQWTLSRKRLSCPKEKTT
Chain of UniProt P0C0L4 (P0C0L4 20-675, chain 2 of 2): as the sequence (P0C0L4 20-675, chain 1 of 2) above

Row | Substance | Kd [nM]
1 | Eap34 domains 3-4 (from UniProt Q99QS1) | 525
2 | Eap (from UniProt Q99QS1) | 185
